Data: the supplement of paper PMC7877785
± gives the uncertainty stated by the source.

Experiment: self-splicing fitness, log relative to wild type (ln ratio); higher = more splicing; Tetrahymena group I intron in knt gene, E. coli kanamycin selection, DiMSum; sequences stand for … in CUCUCU…GGAGGGAAAAGUUAUCAGGCAUGCACCUGGUAGCUAGUCUUUAAACCAAUAGAUUGCAUCGGUUUAAAAGGCAAGACCGUCAAAUUGCGGGAAAGGGGUCAACAGCCGUUCAGUACCAAGUCUCAGGGGAAACUUUGAGAUGGCCUUGCAAAGGGUAUGGUAAUAAGCUGACGGACAUGGUCCUAACCACGCAGCCAAGUCCUAAGUCAACAGAUCUUCUGUUGAUAUGGAUGCAGUUCACAGACUAAAUGUCGGUCGGGGAAGAUGUAUUCUUCUCAUAAGAUAUAGUCGGACCUCUCCUUAAUGGGAGCUAGCGGAUGAAGUGAUGCAACACUGGAGCCGCUGGGAACUAAUUUGUAUGCGAAAGUAUAUUGAUUAGUUUUGGAGUACUCGUGGUCG
Summary of the method: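 Six replicate transformations of E. coli BL21(DE3) with a pET-22b(+) library were grown overnight at 37°C or 30°C. The library randomised all eight P1ex-region intron nucleotides, the intron lying in the knt kanamycin-resistance gene, and plates were LB agar with or without 25 μg/mL kanamycin plus 100 μg/mL carbenicillin, 50 μM IPTG and 0.2% rhamnose. Pooled colonies were amplicon-sequenced on an Illumina HiSeq 2500, and fitness is the DiMSum error-weighted combination of wild-type-normalised replicate fold changes, kanamycin versus none.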

| Sequence | self-splicing fitness (ln) (30 °C) | self-splicing fitness (ln) (37 °C) |
| --- | --- | --- |
| GCCAAGCAAUAUUACGGCGU | -0.74 ± 0.067 | -0.453 ± 0.1 |
| GCCAAGCAAUAUUACGGCUA | -1.66 ± 0.17 | -1.39 ± 0.15 |
| GCCAAGCAAUAUUACGGGGA | -0.604 ± 0.065 | 0.0408 ± 0.085 |
| GCCAAGCAAUAUUACGGGUG | -0.544 ± 0.049 | -0.591 ± 0.057 |
| GCCAAGCAAUAUUACGGUUC | -2.61 ± 0.16 | -0.763 ± 0.12 |
| GCCAAGCAAUAUUACGUCCA | -2.32 ± 0.18 | 0.44 ± 0.2 |
| GCCAAGCAAUAUUACGUGAU | -0.879 ± 0.053 | 0.385 ± 0.07 |
| GCCAAGCAAUAUUACGUGUA | -1.41 ± 0.068 | -0.64 ± 0.062 |
| GCCAAGCAAUAUUACGUUAC | -2.55 ± 0.12 | -2.39 ± 0.18 |
| GCCAAGCAAUAUUACGUUCA | -2.12 ± 0.11 | -0.947 ± 0.12 |
| GCCCAGCAAUAUUACGAAUG | -4.15 ± 0.24 | -2.26 ± 0.23 |
| GCCCAGCAAUAUUACGAGCU | -3.47 ± 0.19 | -1.89 ± 0.15 |
| GCCCAGCAAUAUUACGAUCC | -0.561 ± 0.13 | -0.336 ± 0.19 |
| GCCCAGCAAUAUUACGAUUC | -1.56 ± 0.074 | -0.274 ± 0.09 |
| GCCCAGCAAUAUUACGCACA | -0.537 ± 0.092 | -0.518 ± 0.094 |
| GCCCAGCAAUAUUACGCAUA | -1.61 ± 0.093 | -0.164 ± 0.088 |
| GCCCAGCAAUAUUACGCGAU | -2.76 ± 0.13 | 0.119 ± 0.1 |
| GCCCAGCAAUAUUACGGACG | -0.702 ± 0.07 | -0.133 ± 0.097 |
| GCCCAGCAAUAUUACGGCUU | -1.29 ± 0.071 | -0.757 ± 0.093 |
| GCCCAGCAAUAUUACGGGGC | -2.87 ± 0.15 | -2.73 ± 0.25 |
| GCCCAGCAAUAUUACGGUAU | -0.47 ± 0.055 | -0.0153 ± 0.068 |
| GCCCAGCAAUAUUACGGUGA | -0.302 ± 0.045 | 0.206 ± 0.056 |
| GCCCAGCAAUAUUACGGUUC | -0.85 ± 0.043 | -0.0899 ± 0.059 |
| GCCCAGCAAUAUUACGUAAA | -0.596 ± 0.06 | -0.718 ± 0.097 |

| Sequence | self-splicing fitness (ln) (30 °C) | self-splicing fitness (ln) (37 °C) |
| --- | --- | --- |
| GCCCAGCAAUAUUACGUAUA | -2.1 ± 0.11 | -1.33 ± 0.11 |
| GCCCAGCAAUAUUACGUCCA | -0.999 ± 0.09 | -1.18 ± 0.12 |
| GCCCAGCAAUAUUACGUCUA | -1.37 ± 0.084 | -1.15 ± 0.093 |
| GCCCAGCAAUAUUACGUCUC | -1.3 ± 0.085 | -0.175 ± 0.086 |
| GCCCAGCAAUAUUACGUGAA | -0.204 ± 0.053 | 0.177 ± 0.077 |
| GCCCAGCAAUAUUACGUGAU | -0.455 ± 0.046 | -0.00599 ± 0.065 |
| GCCCAGCAAUAUUACGUGUU | -0.583 ± 0.042 | -0.217 ± 0.054 |
| GCCGAGCAAUAUUACGAAAU | -3.1 ± 0.39 | -1.62 ± 0.41 |
| GCCGAGCAAUAUUACGACCA | -2.62 ± 0.3 | -2.31 ± 0.31 |
| GCCGAGCAAUAUUACGACCC | -2.25 ± 0.34 | -0.208 ± 0.39 |
| GCCGAGCAAUAUUACGAGCA | -1.93 ± 0.11 | -0.944 ± 0.11 |
| GCCGAGCAAUAUUACGCAGC | -3.12 ± 0.29 | -2.22 ± 0.27 |
| GCCGAGCAAUAUUACGCAGU | -2.75 ± 0.33 | -2.25 ± 0.23 |
| GCCGAGCAAUAUUACGCCAA | -1.62 ± 0.43 |  |
| GCCGAGCAAUAUUACGCCCG | -2.68 ± 0.26 |  |
| GCCGAGCAAUAUUACGCCCU | -2.8 ± 0.25 | -0.0518 ± 0.2 |
| GCCGAGCAAUAUUACGCGAC | -2.44 ± 0.21 | -2.26 ± 0.35 |
| GCCGAGCAAUAUUACGGGUA | -1.36 ± 0.068 | -0.505 ± 0.068 |
| GCCGAGCAAUAUUACGUAGC | -2.02 ± 0.12 | -1.84 ± 0.14 |
| GCCGAGCAAUAUUACGUAUG | -3.36 ± 0.25 | -3.11 ± 0.38 |
| GCCGAGCAAUAUUACGUGCU | -3.92 ± 0.21 | -2.08 ± 0.15 |
| GCCGAGCAAUAUUACGUGGG | -4.56 ± 0.42 | -2.85 ± 0.27 |
| GCCGAGCAAUAUUACGUUCC | -1.3 ± 0.2 | -0.589 ± 0.25 |
| GCCGAGCAAUAUUACGUUCU | -1.23 ± 0.1 | -0.97 ± 0.1 |
